From the domain aggregation screens of Martell et al. (2025) come the findings set out here.

This series can be described thus: soluble fraction after stress (log2 fold change); higher = more stays soluble; pooled small domains, quantitative proteomics. To be noted: stress: 50 degC. In short, it runs like this:
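Quantitative proteomics served as the high-throughput read-out for pooled custom libraries of small protein domains. Each was stressed at 50°C. Aggregation propensity is expressed as the base-two log fold change in soluble protein after stress. A higher value means a larger share of the protein remains in solution.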
Take “HMKDESQLVGAEGKAVTPLRPTGVALIGEKRLDVLTEGEFIPRNSDIIVSRVEGNKIIVKLKN”: the “soluble fraction (log2)” value was 0.177.
As for “HMQRGRTFSIVLNWKGRLLSTQMFFPQFTRPTKEQVTFEINKVYPGAMVYYYNPIEKDPSQPLV”, the “soluble fraction (log2)” value is -1.07.
On to “HMSNSWSYSEFMKAVESGQVESVTISGQSIKGTSRGGQAFESVLPAFDDKLMDTLLVNDVEVIGEKP”, for which the “soluble fraction (log2)” value was -0.00195.
For the sequence “HMQENVIIYPNPTKSVIYLSEKVEFILYNILGEIIFIGDNNKIDLNSFDNGVYIFESGNVRTQIIK”, the “soluble fraction (log2)” value stood at 0.0489.
Consider “HMDDDDPDQEIAQYYEKLRAMNPDEETKQKLSDEINKLSKMMYSSQEAMVSRNYLDTVFSLPWHQF”, for which the “soluble fraction (log2)” value was -0.0959.
For “HMNSDQMKEHLDNLVDMAKKNDNTLIDTEIVNYFVGKPDIELNTDMMTKIFDYLDEHHVAVLS”, the “soluble fraction (log2)” value was -0.107.
With “HMQFAEIPNFSEMALQILRLQADGLSITKIAEALHMNPRTVKYHAQENYRKLQASNKSEALLAARNLNL”, the “soluble fraction (log2)” value is -1.3.
For the sequence “HMGHLSNENAGRLLDRVLNDKIHAIMLGHLSKENNMPELAHEAVRMEITMGESRYKADDFPIYVA”, the “soluble fraction (log2)” value was 0.11.
For “HMAMYYVIGGDGQQYGPIDEATVRGWLGEGRVSAASLSFKTGEAQWIPLRDRPELADVLATA”, the “soluble fraction (log2)” value is 0.112.
“HMEEVIEVEGKITAVLPSTMFRAELENGHQVLAHISGKLRKHFIKITVGDIVKMEMSTQDLQKARIV”: the “soluble fraction (log2)” value was -0.307.
On to “HMNEYHRNISDEEFVRDIKETAIKLKKETLTGVEYSQNGKYHASTIIHRFGSWKKALELAELNTK”, for which the “soluble fraction (log2)” value is -0.056.
In the case of “HMQERKYTVSFNTNGGSTINDQKITSGNVIISPGAPKRSGYTFVGWYYHGQPFDLNTKINQDYVLVAKWIK” it was -1.16; in that of “HMGKEYERALQQVTKSEIDSDEKLQQQMDALVNSPRISDKEDAWALLLVKKLRNEGVEWDELPDVLSERVQ”, 0.0796.
On to “HMRVLEYTADGSRLDVLLSQDGVLSRSRAAELIKGGAVTVDGRAEGKPSAKPAPGALVRVEVPE”, for which the “soluble fraction (log2)” value is -0.01.
Take “HMKEKPLWAIRITELREEHYFTQTDVSKALGIAQTTYAGYETGRHEPDFETMIKIADIYKVSLDYLIGR”: the “soluble fraction (log2)” value is -1.27.
For “HMNDEFYAVVRESYAGYALVKPLDEDVGYDILSVSVKNLKVGDIIRLKVKNIKEIYPPEAEVLEVEVLQ”, the “soluble fraction (log2)” value came out at 0.00135.
On to “HMNPETPAQQAVRKRLIVSVQFYRRLKDTPLKAVWQVAARDTLVNGYNLFLKRNIHAFNDRTLSTPSALS”, for which the “soluble fraction (log2)” value is -0.0672.
“HMQNKRQEQLLALLAERRDYMTSRQLAEILQVSDRTIRSDVEAINRRSSPPPIESNVRQGYRLNPEA”: the “soluble fraction (log2)” value stood at 0.0852.
For “HMVDIQTGQKVRIHTSQFAGKIGNITALNVKSAELPNGIRTATASILMQSNENVMLPVSNFDIIE”, the “soluble fraction (log2)” value stood at 0.0434.
Consider “HMIMNEYEELRDRYLIGQIWKIGDLIEAKGIEGKIIQRGTNYVTFNDNNGKVHKAWLHEIKYEQ”, for which the “soluble fraction (log2)” value is -0.343.
Regarding “HMNATQLSNTQKQIRTQLLERLSNNPLTVKQLADRMFVPIDTILKEITALIQEQKIIEDKGGKLQIN”, the “soluble fraction (log2)” value worked out at 0.0217.
As to “HMRINIVKSKNAEQLYIIHSYRINGKNTSKIYKKLGTMADLLPLHNHDRDQVLAWAKEQARLATEQYDQEN”, the “soluble fraction (log2)” value is -0.855.
In the case of “HMDIYKKFIIPATYFGSRLDHVLSELLPELSRSKIQNMIKQNLVMINGNHAAQKQKVVGDEEIIIKDI”, the “soluble fraction (log2)” value is -0.0556.
In the case of “HMVMIPDLVGETIEDAKDILEGLGFEVEVRSEFPESDWGRPFARVTSLSPSAGQEVAKGTLVIIRSF” it was -0.288; in that of “HMTSSSGTITADWLNVRSGAGTNFSRLGSIAGGTRLTVISVHGEWYKITASFEGEIRTGYVHSQYVQMDGE”, -3.96; in that of “HMVEVVDAEKLEERLSKVFSAAVLLEIYNENPAHGKEYAYLFTARKNAVEEMIENGQMKRETWEAK”, -0.963.
Turning to “HMIHTYVETRKVGNNDGLIRVDNKYYRVPQHLVGMKVQIQIDEATISVLQGGVMVATLDKTADVFNPQA”, the “soluble fraction (log2)” value was -0.782.
Consider “HMNVDSLPGEKAVVIKTIDNLRGTGQAVVNGLEWSAKSKDETIIDEGKVVRIVAVEGVKLVVEEE”, for which the “soluble fraction (log2)” value came out at 0.0762.
Turning to “HMKRDNETRRRIVAAAEELFRAKGLDGVNMRELAEMAGVNKGLLHYYFKTKQALFREILVGQMAL”, the “soluble fraction (log2)” value was -1.05.
Regarding “HMKMSVEEVNLSPRTTNALINNDIKTMKDLVALTDTELRDLKGFGSKAYEEVKEKLSELGLSTQ”, the “soluble fraction (log2)” value stood at 0.227.
Regarding “HMEMSLGEKLKQARLTKNFSQEYMAEVLQISQKTYSNFENNKTKPDFSQIEEISKVLETSILEFLT”, the “soluble fraction (log2)” value is -0.152.
With “HMNPNFIEVSHGRLRVNVPLSAYEGTTYHIKPEEAEKLKRTLASRYPWLTPNALKVFIEEAEQAMRERIQ”, the “soluble fraction (log2)” value was -0.29.
For the sequence “HMSAAMTESVLDGIPGLGATRKAALLAHFGSVRKLRAATSEQVREVPGIGPRLAETILATLHEP”, the “soluble fraction (log2)” value was -0.181.
With “HMSASSEALKTAVRKVLLNNRMTQDRMARDAGLSGSALSQWLHGKYQGDVPALEGRLAAWLADTQAS”, the “soluble fraction (log2)” value amounted to 0.0546.
In the case of “HMNQYRKLDGDVQNQIIYILSEYPKLPATIVYQRLLDTNTIVKKDVSLSTVNRFVQKYKDSKGIT”, the “soluble fraction (log2)” value is -1.05.
For “HMDIPDIGHNVRIEVDGHNGKTTHEGIILHPAAPNHITIKLANGYNASYKLEEIINIEILGELGDDSKI”, the “soluble fraction (log2)” value is -0.0692.
In the case of “HMQFLGKVTVTHARQANLRAQPSMDAAIVGKVNPGEVYNVVSIPKTSWYEIQLQNGKTVFIAAGMVSFRM”, the “soluble fraction (log2)” value is -0.557.
“HMDKIYVYTTRGQVIELPRGSTAIDFAYKIQTDIGNMIIAAIVNDKLVDANYVLHNKDRVKIVTS”: the “soluble fraction (log2)” value is -1.92.
Regarding “HMGKVNGFEITVIEGKNVVGSITPRQAIAKNSDGVIQLRGEQSFSATDQVLINELAFYIKSNNLKA”, the “soluble fraction (log2)” value was -0.949.
In the case of “HMQPHLSADEEHLLKILGSDTMHIDALVKRSTLETSNALAALAFLEMKGLVKNIGNMHYIRTYR”, the “soluble fraction (log2)” value was -0.139.
As to “HMSKPTLTDELLTLDLFEEIIKAKENAKGANKRFSLVGFLESKYIVDQEMLPKVNVKVTEYYNLTREN”, the “soluble fraction (log2)” value was -0.117.
In the case of “HMVVSDKIAFSSFLKSVEDGRVVEVEITGNDIRGILSDGTVFNTYAPNDPNLVEKLTSKGVNITALPKE” it was 0.19; in that of “HMSALIGAHTLERIDSRDFEGVVMAWLPKRDGYDSLYKIYHIEDGDFEELDDREVQAAISLFIEGT”, -0.431.
In the case of “HMSEKYPPIDWNNIKTGQSVLIKDINQVVSLTKLPDSKGFAEVQMGLIKTKIKAEKLAATDKKPNK” it was 0.0917; in that of “HMIQNEITLMLQVNGKLRGQIQVPSDASKEQIEQLAKDSEAAQKALAGASPKKIIVVPGRLVNIV”, -0.092; in that of “HMWGAYHDGQVVKFPKKVTVYVIDGQYKRPLANEFVLKFLNYKTSDIIIDKDGNLNNYKNGAVVEH”, -2.69.
In the case of “HMKKLTAEEIQEAKDILEKIQEIPNFKKIFGDDTIKALENSTKTGVLLPDNIISKIHTLMIRFGIK” it was 0.237; in that of “HMLHEFSGVVVSILADTGPSTLKQLHRSLISSDVKMDEKELMQILDEALSSGSVTSHRKGRYLYYSANK”, -0.58; in that of “HMQFSAVVLDMETRRQVAGVAVYINPKGVVKTDMRGRFVIDGAFNSVTLVRQGYESLTLERSEMTDSIWM”, -1.65.
Consider “HMSNYFIEISKDSLARINDEIELDVLRETSDTIIISQEEKTNTISSFIKVLFERQIDILSIQNR”, for which the “soluble fraction (log2)” value amounted to 0.000151.
The value for “HMNYVFVLNEHGVRQTSYVVGLHADTLEKTEKLAKQTYPTSTIISGDSEMQSQFISGKAYVNGEFVDP” was -0.471; that for “HMQEQSSYVGQFGTAATTLRPSGTVELEDGTRIDVVTVGEFIEKGEPVQVVRKDGTWLVVEKRRSK” was 0.286.
In the case of “HMEEKNNIIVSYIEDKISELEKASMYVPNENKEKLIMAFKNRNEDIDVIKTRIDTIFNNSVAAYKENME” it was 0.21; in that of “HMNLLDYTTLYVTSDGKSVSFGIAGKEIPVSYIAQEAPGTVVIDDTIRIPRKYDMEYILKRFNES”, -1.03; in that of “HMNRPYETLFTGLTTDEASAIVGKLEEYGAADYKIEGDTIKVPAAQEPDLKAKLLLDGYPKS”, 0.105.
Regarding “HMGSAIAHAIASLPDRYRELLLLKYDTGYSEKEIAQLLGMTEANVKKTIQRAKAKLQTLLDEMEA”, the “soluble fraction (log2)” value was -0.81.
For the sequence “HMDNIGKTLGQNQTRQYKVAYAEAAKLPAIIMGLVPLPKPPVVDERLRSLYVTATPEQHRQIETLMNRI”, the “soluble fraction (log2)” value stood at 0.11.
As to “HMGGEEPYGSGSLRLAAGAVVPSGYTIKGNEDSMLYHTTESPWYKQTIAEVWFNAESAAQRAGFTRWDAKD”, the “soluble fraction (log2)” value was -0.114.
For “HMRSLAVGNVVSEEGKPSYLLLDSKRTMLFSENSIPSLYLEDGRRVIVNYTLLDEDYQGYDFRIHVNDIDT”, the “soluble fraction (log2)” value was -0.113.
As to “HMSTDSTQLLGFNKTGEELPIYKEANEENKFAEIPQNVYVKNFGQNGEFTKIKYLDQEGYVKTAGLK”, the “soluble fraction (log2)” value was ≥ 0.62.
The value for “HMAPEQWYVLTSGQLPKGPYRLRHIVAMSKGDNWLVARKGAEQWTPLRHLPEFRQAQEANEYIQAIS” was -0.968.
The value for “HMGGSDIYLGAFNIPQGSVRVTSGGQALTEGKDFTIDYNLGSVKIINQAILNSGIPVSVSYENNAG” was 0.123; that for “HMDINVDILPLLKTMTDTLRKVIELDIPFLKDARVQRVNSLDELLLRADITTAEKFRKVFEAYQIEADFGK” was -0.804.
Consider “HMRAGEAVTGQVIGVKEDEIILSIAGSKSEGIITRSEFTNEPNVDLTTKVSVGDELEVKVLKVNDGEGMAS”, for which the “soluble fraction (log2)” value is -0.171.
In the case of “HMSEFSDRFRLLKDESGATLKELSEQLDITVPNLSYYMKGREPSYDILIKIADYFGVTTDWLIGRTDER”, the “soluble fraction (log2)” value was -0.547.
“HMKAQVKSVLDDIPGIGQTRRKALMRYFKSLEKIREASVEELKEADAMNERAAQSVYAFFHK”: the “soluble fraction (log2)” value is -0.471.
The value for “HMGGLAEIILNAIEIEGGFLPITDKSAPELIQSRLGMSKKAFKEAVGTLYKNRDIAIEPNGLRKI” was 0.0577; that for “HMETFEKIKELAKKRGKALGQVEEDLGYGRNTLYKIKNSTPNAERIAEIANYFNVSTDYLLGRTDNPTIAK” was 0.203; that for “HMEQVSDPALLERYAKEVVAASPKAVADYQAGNAKAFQALVGQMMKRTKGKGDPALIREILQKL” was 0.0957.
